From patent EP4578874A1 (SunRock Biopharma S.L., dated 2025)
Numbering of substitutions follows the chain as printed. Blank lines part the entries; values can stand above or below the binder they belong to.

What was measured:
hCCR9 peptide D15A-D16A [1] = target: T1, hCCR9 peptide D15A-D16A (human); assay: 2 x Ala-scan with substituted hCCR9 peptides (Fig. 9A)
T1 peptide: TDFTSPIPNMAAAYGSEST

hCCR9 peptide N12A-M13A [2] = target: T2, hCCR9 peptide N12A-M13A (human); assay: as above
T2 peptide: TDFTSPIPAAADDYGSEST

hCCR9 peptide P11A-N12A [3] = target: T3, hCCR9 peptide P11A-N12A (human); assay: as above
T3 peptide: TDFTSPIAAMADDYGSEST

hCCR9 peptide D16A-Y17A [4] = target: T4, hCCR9 peptide D16A-Y17A (human); assay: as above
T4 peptide: TDFTSPIPNMADAAGSEST

hCCR9 peptide M13A-A14G [5] = target: T5, hCCR9 peptide M13A-A14G (human); assay: as above
T5 peptide: TDFTSPIPNAGDDYGSEST

hCCR9 peptide D15A-D16A [6] = target: T1, hCCR9 peptide D15A-D16A; assay: 2 x Ala-scan with substituted hCCR9 peptides (Fig. 9B)
hCCR9 peptide N12A-M13A [7] = target: T2, hCCR9 peptide N12A-M13A; assay: as above
hCCR9 peptide P11A-N12A [8] = target: T3, hCCR9 peptide P11A-N12A; assay: as above
hCCR9 peptide D16A-Y17A [9] = target: T4, hCCR9 peptide D16A-Y17A; assay: as above
hCCR9 peptide M13A-A14G [10] = target: T5, hCCR9 peptide M13A-A14G; assay: as above
[11] = target: T6, human CCR9 (C-C chemokine receptor type 9) (human, UniProt P51686 1-369); assay: flow cytometry on MOLT-4 cells, unlabeled antibody, n=1
T6 construct: also called huCCR9; hCCR9
T6 sequence: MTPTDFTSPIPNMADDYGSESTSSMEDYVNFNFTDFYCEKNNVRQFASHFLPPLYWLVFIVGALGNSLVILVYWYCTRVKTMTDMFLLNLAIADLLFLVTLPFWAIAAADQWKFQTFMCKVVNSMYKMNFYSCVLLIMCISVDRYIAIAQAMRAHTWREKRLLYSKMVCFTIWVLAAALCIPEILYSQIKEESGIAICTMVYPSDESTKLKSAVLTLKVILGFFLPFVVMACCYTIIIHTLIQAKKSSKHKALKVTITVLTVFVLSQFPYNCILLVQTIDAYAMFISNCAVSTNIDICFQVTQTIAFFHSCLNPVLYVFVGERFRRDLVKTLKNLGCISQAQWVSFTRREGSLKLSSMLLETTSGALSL

[12] = target: T6, human CCR9 (C-C chemokine receptor type …); assay: flow cytometry on MOLT-4 cells; antibody kept 4 days at 4°C (control)
[13] = target: T6, human CCR9 (C-C chemokine receptor type …); assay: cell-based or functional assay
[14] = target: T7, N-terminal 6 (SPIPNMADDYG) (human); assay: peptide inhibition: 1 µg/mL antibody pre-incubated with 100 µg/mL peptide, then binding to MOLT-4 cells by flow cytometry
T7 construct: also called peptide N-terminal 6
T7 peptide: SPIPNMADDYG

[15] = target: T6, human CCR9 (C-C chemokine receptor type …); assay: flow cytometry on CCR9-expressing MOLT-4 cells, PE anti-human Fc, mean ± SD, n=3
[16] = target: T8, CCR9 N-terminal peptide 1 (TPTDFTSPIPNMADDYGSESTSS) (human, biotinylated in the ELISA of Example 2 (site not stated)); assay: ELISA, plate coated with biotinylated CCR9 N-terminal peptide 1, anti-human Fc detection, n=2
T8 construct: Biotin is stated for the ELISA; also called N-terminal 1; biotinylated peptide from the N-terminal region of huCCR9
T8 peptide: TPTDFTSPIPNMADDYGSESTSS

[17] = target: T6, human CCR9 (C-C chemokine receptor type …); assay: flow cytometry on huCCR9-expressing HEK293 cells, PE anti-human Fc, mean ± SD, n=3
[18] = target: T6, human CCR9 (C-C chemokine receptor type …); assay: flow cytometry on MOLT-4 cells; antibody incubated 4 days at 40°C
[19] = target: T6, human CCR9 (C-C chemokine receptor type …); assay: flow cytometry on MOLT-4 cells; antibody incubated 4 days at 23°C
[20] = target: T6, human CCR9 (C-C chemokine receptor type …); assay: flow cytometry on MOLT-4 cells, pHrodo-labeled antibody, n=1
[21] = target: T6, human CCR9 (C-C chemokine receptor type …); assay: screen of murine hybridoma antibodies for affinity to CCR9 (ELISA, then flow cytometry); format not detailed

binding result (hCCR9 peptide D15A-D16A [6]): no binding | binding result (hCCR9 peptide N12A-M13A [7]): no binding | binding result (hCCR9 peptide P11A-N12A [8]): no binding | binding result (hCCR9 peptide D16A-Y17A [9]): no binding | binding result (hCCR9 peptide M13A-A14G [10]): no binding
B2: C9Mab-19 (antibody, V domains shown)
VH: EVKLEESGGGLVQPGGSMKLSCVASGFTFSNYWMDWVRQSPEKGLEWVAEIRSKSNNYATHYAESMKGRFTISRDDSKSSVYLQMINLRTEDTGIYYCAFYYSPYWGQGTLVTVSA
VL: DVVMTQTPLSLPVSLGDQASISCRSSQSLLHSNGNTFLHWYLQKPGQSPKLLIYKVSNRFSGVPDRFSGSGSGTDFTLKVSRVEAEDLGVYFCSQTTHLPWTFGGGTKLEIKR
notes: Murine parental antibody from hybridoma; also called C9M19; clone 19

EC50 [11]: 0.6 nM | EC50 [12]: 1.86 nM | binding result [14]: binds | EC50 [15]: 0.59 nM | EC50 [16]: 14.1 nM | EC50 [17]: 0.92 nM | EC50 [18]: 2 nM | EC50 [19]: 2.04 nM
B5: huC9Mab-19-VL2 (antibody, V domains shown)
VH: EVQLVESGGGLVKPGGSLRLSCAASGFTFSNYWMDWVRQAPGKGLEWVGEIRSKSNNYATHYAESMKGRFTISRDDSKNTLYLQMNSLKTEDTAVYYCAFYYSPYWGQGTLVTVSS
VL: DVVMTQSPSSLSASVGDRVTITCRSSQSLLHSNGNTFLHWYQQKPGKAPKLLIYKVSNRFSGVPSRFSGSGSGTDFTLTISSLQPEDFATYYCSQTTHLPWTFGGGTKVEIK
notes: Humanized IgG made in HEK293-6E cells
EC50 of cytotoxicity (ADCC, specific lysis of CFSE-stained MOLT-4 cells), PBMC batch HN#1 [13]: 0.23 nM | EC50 of cytotoxicity (ADCC, specific lysis of CFSE-stained MOLT-4 cells), PBMC batch HN#2 [13]: 0.06 nM

EC50 [20]: 2.05 nM
B6: huC9Mab19-VL2 pHrodo (antibody, V domains shown)
VH: B5 VH
VL: B5 VL
modifications: pHrodo fluorophore label (sites not given)
notes: also called pHrodo-labeled huC9Mab19-VL2

binding result [21]: binds
B9: IAb01 (antibody, V domains shown)
VH: EVKVEESGGGLVQPGGSMKLSCVVSGLTFSNFWMTWVRQSPEKGLEWVAEIRLKSNNYATHYAESVKGRFTISRDDSRSSVFLQMNNLRAEDTGIYYCTTDGWFAFWGQGTLVTVSA
VL: QIVLTQSPTIMSASPGEKVTITCSASSSVSYMHWFQQKPGTSPKLWIYSTSNLASGVPARFSGSGSGTSYSLTISRMEAEDAATYYCQQRSSYPFTFGSGTKLEIKR
notes: Murine antibody

More lines, now with the values behind:

B1: C9Mab-16 (antibody, V domains shown)
VH: EVKLEESGGGLVLPGGSMKLSCVASGFTFSDYWMNWVRQSPEKGLEWVAEIRSKSKNYATHYEESVRGRCTISRDDSKSSVYLQMNNLRAEDTGIYFCMFFYSPYWGQGTLVTVSA
VL: B2 VL with L30V, N35I, V80I, L99V
notes: Murine parental antibody from hybridoma; also called C9M16; clone 16
binding result (hCCR9 peptide D15A-D16A [1]): no binding | binding result (hCCR9 peptide N12A-M13A [2]): no binding | binding result (hCCR9 peptide P11A-N12A [3]): no binding | binding result (hCCR9 peptide D16A-Y17A [4]): no binding | binding result (hCCR9 peptide M13A-A14G [5]): no binding

B3: huC9Mab-16-VL2 (antibody, V domains shown)
VH: B5 VH with N31D, D35N, N56K, A63E, M66V, K67R, A99M, Y101F
VL: B5 VL with L30V, N35I, L99V
notes: as for B5
EC50 [11]: 0.27 nM | EC50 [12]: 0.4 nM | EC50 of cytotoxicity (ADCC, specific lysis of CFSE-stained MOLT-4 cells), PBMC batch HN#1 [13]: 0.005 nM | EC50 of cytotoxicity (ADCC, specific lysis of CFSE-stained MOLT-4 cells), PBMC batch HN#2 [13]: 0.01 nM | binding result [14]: binds | EC50 [15]: 0.24 nM | EC50 [16]: 0.546 nM | EC50 [17]: 0.1 nM | EC50 [18]: 0.25 nM | EC50 [19]: 0.4 nM

B4: huC9Mab16-VL2 pHrodo (antibody, V domains shown)
VH: B5 VH with N31D, D35N, N56K, A63E, M66V, K67R, A99M, Y101F
VL: B5 VL with L30V, N35I, L99V
modifications: pHrodo fluorophore label (sites not given)
notes: also called pHrodo-labeled huC9Mab16-VL2
EC50 [20]: 0.51 nM

B7: SRB1 (antibody, V domains shown)
VH: EVQLVESGGGLVKPGGSLRLSCAASGFTFSKFWMNWVRQAPGKGLEWVGEIRLKSNNYATHYAESVKGRFTISRDDSKNTLYLQMNSLKTEDTAVYYCTSDGWFAYWGQGTLVTVSS
VL: DVQMTQSPSSLSASVGDRVTITCRSSQSLVHSNGNTYLNWYQQKPGKAPKLLIYKVSNRFSGVPSRFSGSGSGTDFTLTISSLQPEDFATYYCSQSTHFPRTFGGGTKVEIKR
notes: Detected with anti-human Fc, so it has a human Fc; also called humanised version of the antibody 92R; positive control
EC50 [11]: 0.07 nM | EC50 [12]: 0.05 nM | EC50 of cytotoxicity (ADCC, specific lysis of CFSE-stained MOLT-4 cells), PBMC batch HN#1 [13]: 0.0008 nM | EC50 of cytotoxicity (ADCC, specific lysis of CFSE-stained MOLT-4 cells), PBMC batch HN#2 [13]: 0.003 nM | EC50 [15]: 0.04 nM | EC50 [16]: 19.2 nM | EC50 [17]: 0.04 nM | EC50 [18]: 0.05 nM | EC50 [19]: 0.02 nM

B8: SRB1 pHrodo (antibody, V domains shown)
VH: B7 VH
VL: B7 VL
modifications: pHrodo fluorophore label (sites not given)
notes: also called pHrodo-labeled SRB1
EC50 [20]: 0.08 nM

B10: IAb02 (antibody, V domains shown)
VH: B9 VH with V23A, V24A, L27F, T28I, T35N, V48I, R78K, F82Y, T99A
VL: B2 VL with L30V, F37Y, H39Q, Y41H, L51F, V80I, T96S, L99V, W101R
notes: Murine antibody
binding result [21]: binds
